Test results taken from paper PMC12199146.

Molecular target: T1, Endonuclease V (EcEndoV), wild-type (Escherichia coli) (UniProt P68739)
T1 sequence: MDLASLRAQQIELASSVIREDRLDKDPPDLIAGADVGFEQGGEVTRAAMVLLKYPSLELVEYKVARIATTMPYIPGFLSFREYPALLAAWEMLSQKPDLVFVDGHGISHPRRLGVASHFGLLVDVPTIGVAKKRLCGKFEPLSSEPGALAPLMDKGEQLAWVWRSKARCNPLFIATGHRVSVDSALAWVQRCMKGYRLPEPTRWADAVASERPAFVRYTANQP
Assay: EMSA
Settings: 5 mM Mg2+; pattern similar to A-RNA; one inosine; EMSA: 25 mM sodium phosphate pH 6.5, 50-300 mM NaCl (500 mM in Fig. S17E), 1 mM DTT, 5 mM MgCl2, 30 min on ice, 2 pmol RNA in 10 ul, 12% native gel in TBE at …

Substance: 1I-RNA (single-edited 20-mer dsRNA, one I:U pair)
- binding signal (fold KD vs I-RNA): 2
